According to patent publication US6200577A, “Anti-herpesviral agents and assays therefor” (priority 1996, dated 2001):
Entries after “also recorded” stand apart in the source; their conditions may differ.

Tests used:
[1] = Solubility of synthetic peptides in buffer; assay type: physicochemical; settings: peptides dissolved in 20 mM Tris-HCl, pH 8.0, 250 mM NaCl; unpurified preparations
Experimental: Synthesis and Purification of Oligopeptides. Peptides were synthesised by continuous flow Fmoc chemistry (Atherton and Sheppard, 1989; McLean et al., 1991) and, where stated in the text, were purified by preparative reverse-phase HPLC (Owsianka et al., 1993). The Mr values of peptides were determined by fast atom bombardment mass spectrometry (M-Scan) and corresponded to the predicted values. Peptides were dissolved in 20 mM Tris-HCl, pH 8.0, 250 mM NaCl and centrifuged at 11,500 g for 1 minute prior to use. […] Precipitates were removed by centrifugation before use.

[2] = target: T1, VP16 (Human herpesvirus 1, UniProt P06492); test: ELISA of direct binding of VP16 to plate-coated peptides; parameters: species or system HSV-1; settings: wells coated with peptide up to 500 μg/ml; VP16 1.6 μg/ml; FIG. 10
T1 construct: Plasmid pETVP16 was used to express full-length VP16 under the control of the T7 RNA polymerase promoter; made in house; host or cells: E. coli BL21(DE3)
Experimental: FIG. 10 Binding of VP16 to peptides. Microtitre plates were coated with 5-fold dilutions of peptides ranging from 500 μg/ml to 1 μg/ml and blocked with PBS/10% NCS. VP16 was then added to a final concentration of 1.6 μg/ml and detected with LP1. The legend for the peptides added is shown to the right of the graph.
(§1) Dilutions of proteins in PBS were coated overnight onto flat bottomed micro-titre plates (Dynatech) at 37° C. and then blocked with either 2% BSA or 10% new-born calf serum (NCS) in PBS for 1 hour at 37° C. Specific binding of a second protein to the plate-bound protein was performed for 1.5-2 hours at ambient temperature. a Excess secondary protein was removed by washing four times with PBS, 0.3% Tween 20. Bound protein was detected by incubation for 1.5-2 hours with LP1 antibody in PBS, 1% gelatin or PBS, 2% NCS. The bound antibody was detected by incubation for 1 hour at ambient temperature with anti-mouse antibody conjugated to HRP (1:500) and visualised with Smg/ml enzyme substrate 2,2'-azino-bis(3-ethylbenzthiazoline-6-sulphonic acid) (ABTS; Sigma) in citrate-phosphate buffer containing 6 μl hydrogen peroxide in a total volume of 20 ml. Optical densities were measured on a Titertek Multiscan PLUS instrument.
To examine whether VP16 could bind directly to the peptides, wells were coated with each peptide (A-J) at a range of concentrations from […] to 500 μg/ml and the plate was then blocked with […]. […] Nonetheless, the data for peptides D and E implicate direct binding of these peptides to VP16 as the mechanism for inhibiting its interaction with VP22. Peptide H also was active in experiments which prevented gB binding to VP22trunc [Section 4 (iii)] and thus also forms an aspect of the invention.

[3] = target: T2, VP16/VP22trunc interaction (Human herpesvirus 1, UniProt P06492); test: ELISA of peptide inhibition of VP16 binding to VP22trunc; parameters: species or system HSV-1; settings: D and E pure preparations, effect at 100 and 500 μg/ml; VP16 1.6 μg/ml; 160 ng VP22trunc; FIG. 9
T2 construct: Plasmid pETVP16 was used to express full-length VP16 under the control of the T7 RNA polymerase promoter; made in house; host or cells: E. coli BL21(DE3)
Experimental: FIG. 9 Inhibitory effect of peptides D and E on the VP22trunc-VP16 interaction in ELISAs. Microtitre plates were coated with 160 ng of VP22trunc and blocked with PBS/10% NCS. Before addition to the wells, five-fold dilutions of the peptides, ranging from 500 μg/ml to 1 g/ml, were incubated with VP16 (1.6 μg/ml). Bound VP16 was detected with LP1 at a dilution of 1:1000. The legend for the peptides added is shown to the right of the graph. Values are shown relative to those obtained in the absence of the peptide.
as §1
To adopt a more quantitative approach, an ELISA for VP16 binding to VP22trunc was developed. Optimal conditions were determined by coating wells with various quantities of VP22trunc followed by blocking with 2% BSA. Plates were then incubated with dilutions of VP16 and the bound VP16 detected with LP1.
The studies presented above have provided strong evidence in support of peptide inhibition of the interaction between VP16 and VP22. However, quantitative analysis of the ability of peptides to block any interaction is difficult to perform by the above methods. Therefore, using the ELISA system described in Results Section 2(iii) with the exception that PBS/10% NCS was utilised as a blocking agent, the inhibitory effects of peptides D and E were examined. This modification arose due to nonspecific binding of the peptides to wells when BSA was used for blocking (data not shown).

[4] = target: T2, VP16/VP22trunc interaction; test: Far Western analysis of peptides blocking VP16 binding to immobilised VP22trunc; parameters: species or system HSV-1
Experimental: FIG. 7 Far Western analysis of the ability of peptides to block the interaction between VP16 and immobilised VP22trunc. Purified VP22trunc was added to partially purified extract of VP16 and the sample run on a 12% polyacrylamide gel. Proteins were then transferred to nitrocellulose membrane and the blot was cut into strips, with each strip containing approximately 1 g of VP22trunc. In (A), strips were pre-incubated with 1 mg of each of the following peptides: lane 2, no peptide, lane 3, peptide C; lane 4, peptide D; lane 5, peptide E; lane 6, peptide F; lane 7, peptides D and E; lane 8, peptides C and F. In (B) strips were pre-incubated with 1 mg of each of the following peptides: lane 2, no peptide, lane 3, peptide C; lane 4, purified peptide D; lane 5, purified peptide E; lane 6, peptide F. 24 g of pure VP16 was then added to strips 2 to 8 in (A) and strips 2 to 6 in (B), followed by incubation with LP1 antibody (1:1000 dilution). As a control, portions of the blot were incubated with LP1 or the 9220 antibody at a dilution of 1:1000 (lane 1 for LP1 in A and B; lane 9 in A and lane 7 in B for 9220). The apparent molecular weights of VP16 (65 KDa) and the dimer (32 KDa) and monomer (16 KDa) forms of VP22trunc are shown.
Following electrophoresis, proteins were electrotransferred to either Hybond or ProBlott (Applied Biosystems) membrane and the membrane was incubated in renaturation buffer (50 mM Tris-HCl, pH 8.0, 150 mM NaCl, 10% glycerol, 1 mM DTT) at 4° C. for 5-6 hours.
For membranes probed with either VP16 or VP22trunc, blocking was performed overnight as described for Western blot analysis. Probing with epitope-tagged VP22 or VP16 was performed in 20 mM Tris-HCl, pH 8.0, 250 mM NaCl for 1.5 hours at ambient temperature. Excess probe was removed by washing 4 times (10 minutes per wash) in 20 mM Tris-HCl, pH8.0, 250 mM NaCl, followed by incubation with the appropriate antibody at a dilution of 1:1000 in TTBS/1% gelatin for 1.5-2 hours. Bound antibody was detected as described for Western blot analysis.
Based on the studies with soluble VP16 and VP22trunc presented above, only a restricted number of peptides were examined by Far Western analysis to identify those that may prevent binding of VP16. Thus, VP22trunc was added to a crude extract of bacterially expressed VP16 and the proteins were electrophoresed on a polyacrylamide gel followed by transfer to a membrane. […] Before the addition of VP16 the blot strips in lanes 3 to 8 were incubated with crude preparations of peptides C, D, E, or E' as well as mixtures of either 0 and E or C and F. When the blot strips were incubated with peptides C and F either singly or in combination, VP16 bindincg to VP22trunc was not prevented (FIG. 7A, lanes 3, 6 and 8).

T1 sequence (P06492 whole entry): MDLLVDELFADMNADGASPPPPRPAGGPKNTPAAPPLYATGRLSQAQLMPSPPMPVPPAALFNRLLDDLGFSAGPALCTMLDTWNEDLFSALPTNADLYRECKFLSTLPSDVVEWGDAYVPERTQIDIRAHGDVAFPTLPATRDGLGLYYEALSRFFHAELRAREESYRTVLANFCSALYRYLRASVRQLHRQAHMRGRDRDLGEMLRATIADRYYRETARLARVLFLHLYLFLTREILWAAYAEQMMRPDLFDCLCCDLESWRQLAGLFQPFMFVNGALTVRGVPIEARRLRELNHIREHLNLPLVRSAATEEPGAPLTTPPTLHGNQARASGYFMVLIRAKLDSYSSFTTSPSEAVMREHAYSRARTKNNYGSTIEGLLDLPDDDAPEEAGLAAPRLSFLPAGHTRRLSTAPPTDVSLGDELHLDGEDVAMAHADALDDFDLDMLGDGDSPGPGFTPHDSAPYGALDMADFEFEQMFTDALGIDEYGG
T2 sequence (P06492 whole entry): as above

Row | Sequence | Solubility [1] | Direct binding of VP16 to plate-coated peptide (ELISA) [2] | Inhibition of VP16 binding to VP22trunc in ELISA [3] | Blocking of VP16 binding to immobilised VP22trunc (Far Western), crude peptides ([4]; strips pre-incubated with 1 mg of crude peptide, FIG. 7A) | Blocking of VP16 binding to immobilised VP22trunc (Far Western), repeat with purified peptides D and E ([4]; strips pre-incubated with 1 mg peptide, D and E purified, FIG. 7B)
1 | DVVQDVPDPERKTPRVTGG [Peptide J] | soluble | binding did not occur | – | – | –
2 | GSHMARTAPTRSKTPAQGLA [Peptide A] | soluble | binding did not occur | – | – | –
3 | KTPAQGLARKLHFSTAPPNP [Peptide B] | soluble | binding did not occur | neither peptides B, C nor F had any effect | – | –
4 | NLLQRANELVNPDVVQDVPD [Peptide I] | soluble | binding did not occur | – | – | –
5 | PRTDEDLNELLGITTIRVTV [Peptide G] | partly; also recorded: partially insoluble | binding did not occur | – | – | –
6 | RMAAVQLWDMSRPRTDEDLN [Peptide F] | soluble | binding did not occur | neither peptides B, C nor F had any effect | not prevented | had no effect
